Here are results for 10 molecules from patent US20220177587A1, “METHODS AND USES OF VARIANT CD80 FUSION PROTEINS AND RELATED CONSTRUCTS” (Alpine Immune Sciences, Inc., priority 2018, published 2022).

Test [1] concerns the target T1, CD28 (Homo sapiens, UniProt P10747). Description: Flow binding to Jurkat/IL2 reporter cells (CD28). Set-up: host or cells: Jurkat cells expressing an IL-2-luciferase reporter. The note with it: Table E19; for CD28 MFI at 33.3 nM: Jurkats (CD28); for CD28 Fold change to WT CD80: MFI at 33.3 nM relative to WT CD80 ECD-Fc (Abcam). An outline of the steps:
(§1)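 Flow cytometry on transfected CHO cells or CD28+ Jurkat/IL2 reporter cells, blocked 20 min in PBS/1% BSA/0.1% azide. Fusion protein 45 min on ice; PE anti-human Fc 1:150, 30 min on ice; fixed in 2% formaldehyde. Read-out PE MFI, EC50 calculated.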

Test [2] concerns the target T1, CD28. Description: Jurkat/IL2 + CHO/OKT3 +/- PD-L1 reporter assay: PD-L1-dependent CD28 costimulation. The conditions noted are these: Table E21, Jurkat/IL2 + CHO/OKT3/PD-L1; for Fold Increase over WT CD80-IgV-Fe: 5.0 nM. In kind it is cell-based. Set-up: host or cells: Jurkat cells expressing an IL-2-luciferase reporter. Put shortly:
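Jurkat reporter cells (100,000/well) preincubated 15 min at room temperature with test protein, then cocultured 5 h at 37 °C with CHO aAPCs bearing anti-CD3 scFv (OKT3) with or without PD-L1. Luciferase luminescence (RLU) read after lysis-substrate addition.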

Another test has as its target huCTLA4 (Homo sapiens, UniProt P16410). The experiment in a line: Flow binding to CHO cells stably expressing CTLA4. Set-up: huCTLA4 and huPD-L1, full-length mammalian surface expression constructs were generated; expressed in transfected cells; host or cells: CHO cells, lentiviral transduction, sorted to >98% purity. The conditions noted are these: Table E19; for CTLA4 MFI at 33.3 nM: CHO cells stably expressing CTLA4; for CTLA4 Fold change to WT CD80: MFI at 33.3 nM relative to WT CD80 ECD-Fc (Abcam). An outline of the steps:
as §1

The next test concerns the target huPD-L1 (Homo sapiens, UniProt Q9NZQ7). Description: Flow binding to CHO cells stably expressing PD-L1. The note with it: Table E19; for PD-L1 MFI at 33.3 nM: CHO cells stably expressing PD-L1; for PD-L1 Fold change to WT CD80: MFI at 33.3 nM relative to WT CD80 ECD-Fc (Abcam); for Ratio of PDL1:CD28: ratio of MFI at 33.3 nM. Set-up: huCTLA4 and huPD-L1, full-length mammalian surface expression constructs were generated; expressed in transfected cells; host or cells: CHO cells, lentiviral transduction, sorted to >98% purity. Put shortly:
as §1

Sequence of huCTLA4 (P16410 36-223): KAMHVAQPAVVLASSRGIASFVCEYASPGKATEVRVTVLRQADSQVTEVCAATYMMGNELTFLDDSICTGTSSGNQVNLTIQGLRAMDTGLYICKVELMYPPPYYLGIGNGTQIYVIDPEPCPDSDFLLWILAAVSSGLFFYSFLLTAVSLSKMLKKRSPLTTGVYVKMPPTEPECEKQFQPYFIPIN
Sequence of huPD-L1 (Q9NZQ7 19-290): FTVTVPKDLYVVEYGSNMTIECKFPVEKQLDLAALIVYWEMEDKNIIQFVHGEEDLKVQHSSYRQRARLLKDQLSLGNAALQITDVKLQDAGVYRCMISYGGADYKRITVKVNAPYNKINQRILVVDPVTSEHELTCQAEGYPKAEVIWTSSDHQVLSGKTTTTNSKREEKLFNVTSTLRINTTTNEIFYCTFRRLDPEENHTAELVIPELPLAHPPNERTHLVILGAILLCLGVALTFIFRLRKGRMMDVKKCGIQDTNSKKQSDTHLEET

B1: D46V/M47L/L85Q (protein)
chain: VIHVTKEVKEVATLSCGHNVSVEELAQTRIYWQKEKKMVLTMMSGVLNIWPEYKNRTIFDITNNLSIVILALRPSDEGTYECVVQKYEKDAFKREHLAEVTLSVKAD
On to B1, for which, in the test with CD28 [1], the “CD28 MFI at 33.3 nM” value is 567 and the “CD28 Fold change to WT CD80” value was determined as 0.8 fold. Moreover, in the test with CD28 [2], the “Fold Increase over WT CD80-IgV-Fe” value is reported as 5.2 fold and the “Relative Luciferase Units (RLU), CD80 Conc 5.0 nM” value (“Relative Luciferase Units (RLU)” below) was found to be 598 RLU. Besides, in the test with huCTLA4, the “CTLA4 MFI at 33.3 nM” value was 40153 and the “CTLA4 Fold change to WT CD80” value amounted to 1.0 fold. In the test with huPD-L1, the “PD-L1 MFI at 33.3 nM” value is 5976, the “PD-L1 Fold change to WT CD80” value stood at 46.7 fold and the “Ratio of PDL1:CD28” value is reported as 10.5.

B2: E35D/K89N (protein)
chain: VIHVTKEVKEVATLSCGHNVSVEELAQTRIYWQKDKKMVLTMMSGDMNIWPEYKNRTIFDITNNLSIVILALRPSDEGTYECVVLKYENDAFKREHLAEVTLSVKAD
With B2, in the test with CD28 [1], the “CD28 MFI at 33.3 nM” value stood at 236 and the “CD28 Fold change to WT CD80” value amounted to 0.3 fold. For the same molecule, in the test with CD28 [2], the “Fold Increase over WT CD80-IgV-Fe” value amounted to 2.5 fold and the “Relative Luciferase Units (RLU)” value came out at 293 RLU. Also, in the test with huCTLA4, the “CTLA4 MFI at 33.3 nM” value was found to be 21755 and the “CTLA4 Fold change to WT CD80” value was found to be 0.5 fold. For the same molecule, in the test with huPD-L1, the “PD-L1 MFI at 33.3 nM” value stood at 757, the “PD-L1 Fold change to WT CD80” value turned out to be 5.9 fold and the “Ratio of PDL1:CD28” value is 3.2.

B3: E35D/D46V/M47L/V68M/L85Q (protein)
chain: VIHVTKEVKEVATLSCGHNVSVEELAQTRIYWQKDKKMVLTMMSGVLNIWPEYKNRTIFDITNNLSIMILALRPSDEGTYECVVQKYEKDAFKREHLAEVTLSVKAD
As for B3, in the test with CD28 [1], the “CD28 MFI at 33.3 nM” value came to 464 and the “CD28 Fold change to WT CD80” value is 0.7 fold. In the test with CD28 [2], the “Fold Increase over WT CD80-IgV-Fe” value worked out at 6.2 fold and the “Relative Luciferase Units (RLU)” value turned out to be 712 RLU. Further, in the test with huCTLA4, the “CTLA4 MFI at 33.3 nM” value came out at 26207 and the “CTLA4 Fold change to WT CD80” value came out at 0.6 fold. Also, in the test with huPD-L1, the “PD-L1 MFI at 33.3 nM” value came to 28418, the “PD-L1 Fold change to WT CD80” value was 222.0 fold and the “Ratio of PDL1:CD28” value worked out at 61.2.

B4: E35D/N48K/K89N (protein)
chain: VIHVTKEVKEVATLSCGHNVSVEELAQTRIYWQKDKKMVLTMMSGDMKIWPEYKNRTIFDITNNLSIVILALRPSDEGTYECVVLKYENDAFKREHLAEVTLSVKAD
Regarding B4, in the test with CD28 [1], the “CD28 MFI at 33.3 nM” value was 411 and the “CD28 Fold change to WT CD80” value was 0.6 fold. Further, in the test with CD28 [2], the “Fold Increase over WT CD80-IgV-Fe” value is reported as 6.3 fold and the “Relative Luciferase Units (RLU)” value was found to be 719 RLU. Besides, in the test with huCTLA4, the “CTLA4 MFI at 33.3 nM” value is 34727 and the “CTLA4 Fold change to WT CD80” value is 0.9 fold. For the same molecule, in the test with huPD-L1, the “PD-L1 MFI at 33.3 nM” value worked out at 5766, the “PD-L1 Fold change to WT CD80” value is 45.0 fold and the “Ratio of PDL1:CD28” value is given as 14.0.

B5: K89N (protein)
chain: VIHVTKEVKEVATLSCGHNVSVEELAQTRIYWQKEKKMVLTMMSGDMNIWPEYKNRTIFDITNNLSIVILALRPSDEGTYECVVLKYENDAFKREHLAEVTLSVKAD
On to B5, for which, in the test with CD28 [1], the “CD28 MFI at 33.3 nM” value is on record as 56.3 and the “CD28 Fold change to WT CD80” value was found to be 0.1 fold. In the test with CD28 [2], the “Fold Increase over WT CD80-IgV-Fe” value stood at 1.0 fold and the “Relative Luciferase Units (RLU)” value worked out at 116 RLU. Also, in the test with huCTLA4, the “CTLA4 MFI at 33.3 nM” value is 944 and the “CTLA4 Fold change to WT CD80” value is recorded as 0.0 fold. In addition, in the test with huPD-L1, the “PD-L1 MFI at 33.3 nM” value came out at 52.8, the “PD-L1 Fold change to WT CD80” value came out at 0.4 fold and the “Ratio of PDL1:CD28” value turned out to be 0.9.

B6: M47V/N48K/V68M (protein)
chain: VIHVTKEVKEVATLSCGHNVSVEELAQTRIYWQKEKKMVLTMMSGDVKIWPEYKNRTIFDITNNLSIMILALRPSDEGTYECVVLKYEKDAFKREHLAEVTLSVKAD
For B6, in the test with CD28 [1], the “CD28 MFI at 33.3 nM” value is listed as 641 and the “CD28 Fold change to WT CD80” value came out at 0.9 fold. In the test with CD28 [2], the “Fold Increase over WT CD80-IgV-Fe” value was determined as 5.8 fold and the “Relative Luciferase Units (RLU)” value was 664 RLU. In the test with huCTLA4, the “CTLA4 MFI at 33.3 nM” value is given as 34612 and the “CTLA4 Fold change to WT CD80” value is 0.9 fold. In the test with huPD-L1, the “PD-L1 MFI at 33.3 nM” value was found to be 14464, the “PD-L1 Fold change to WT CD80” value was determined as 113.0 fold and the “Ratio of PDL1:CD28” value is 22.6.

B7: M47V/V68M (protein)
chain: VIHVTKEVKEVATLSCGHNVSVEELAQTRIYWQKEKKMVLTMMSGDVNIWPEYKNRTIFDITNNLSIMILALRPSDEGTYECVVLKYEKDAFKREHLAEVTLSVKAD
As to B7, in the test with CD28 [1], the “CD28 MFI at 33.3 nM” value came to 328 and the “CD28 Fold change to WT CD80” value was 0.5 fold. Moreover, in the test with CD28 [2], the “Fold Increase over WT CD80-IgV-Fe” value was found to be 4.8 fold and the “Relative Luciferase Units (RLU)” value was 553 RLU. In the test with huCTLA4, the “CTLA4 MFI at 33.3 nM” value was 7282 and the “CTLA4 Fold change to WT CD80” value is 0.2 fold. In the test with huPD-L1, the “PD-L1 MFI at 33.3 nM” value worked out at 4294, the “PD-L1 Fold change to WT CD80” value is recorded as 33.5 fold and the “Ratio of PDL1:CD28” value was found to be 13.1.

B8: E35D/D46V/M47L/L85Q (protein)
chain: VIHVTKEVKEVATLSCGHNVSVEELAQTRIYWQKDKKMVLTMMSGVLNIWPEYKNRTIFDITNNLSIVILALRPSDEGTYECVVQKYEKDAFKREHLAEVTLSVKAD
On to B8, for which, in the test with CD28 [1], the “CD28 MFI at 33.3 nM” value turned out to be 268 and the “CD28 Fold change to WT CD80” value is on record as 0.4 fold. Besides, in the test with CD28 [2], the “Fold Increase over WT CD80-IgV-Fe” value came to 4.2 fold and the “Relative Luciferase Units (RLU)” value was 481 RLU. In the test with huCTLA4, the “CTLA4 MFI at 33.3 nM” value is 38150 and the “CTLA4 Fold change to WT CD80” value is 0.9 fold. For the same molecule, in the test with huPD-L1, the “PD-L1 MFI at 33.3 nM” value is on record as 7523, the “PD-L1 Fold change to WT CD80” value was 58.8 fold and the “Ratio of PDL1:CD28” value is given as 28.1.

B9: E35D/N48K (protein)
chain: VIHVTKEVKEVATLSCGHNVSVEELAQTRIYWQKDKKMVLTMMSGDMKIWPEYKNRTIFDITNNLSIVILALRPSDEGTYECVVLKYEKDAFKREHLAEVTLSVKAD
Take B9: in the test with CD28 [1], the “CD28 MFI at 33.3 nM” value is listed as 194 and the “CD28 Fold change to WT CD80” value is recorded as 0.3 fold. For the same molecule, in the test with CD28 [2], the “Fold Increase over WT CD80-IgV-Fe” value is listed as 5.1 fold and the “Relative Luciferase Units (RLU)” value came out at 590 RLU. Besides, in the test with huCTLA4, the “CTLA4 MFI at 33.3 nM” value is given as 41325 and the “CTLA4 Fold change to WT CD80” value came to 1.0 fold. In addition, in the test with huPD-L1, the “PD-L1 MFI at 33.3 nM” value was 6545, the “PD-L1 Fold change to WT CD80” value was determined as 51.1 fold and the “Ratio of PDL1:CD28” value worked out at 33.7.

B10: M47V (protein)
chain: VIHVTKEVKEVATLSCGHNVSVEELAQTRIYWQKEKKMVLTMMSGDVNIWPEYKNRTIFDITNNLSIVILALRPSDEGTYECVVLKYEKDAFKREHLAEVTLSVKAD
For the molecule B10, in the test with CD28 [1], the “CD28 MFI at 33.3 nM” value is listed as 68.7 and the “CD28 Fold change to WT CD80” value turned out to be 0.1 fold. For the same molecule, in the test with CD28 [2], the “Fold Increase over WT CD80-IgV-Fe” value came out at 3.9 fold and the “Relative Luciferase Units (RLU)” value was 445 RLU. Besides, in the test with huCTLA4, the “CTLA4 MFI at 33.3 nM” value stood at 33341 and the “CTLA4 Fold change to WT CD80” value is reported as 0.8 fold. In the test with huPD-L1, the “PD-L1 MFI at 33.3 nM” value amounted to 2317, the “PD-L1 Fold change to WT CD80” value is given as 18.1 fold and the “Ratio of PDL1:CD28” value amounted to 33.7.
